Key:
[1] = target: Myc-tagged TCF7L2 (UniProt Q9NQB0); assay: co-immunoprecipitation (anti-FLAG IP, immunoblot densitometry); conditions: HEK293T cells, transfected; densitometry mean of three independent experiments; parent: 1.0
[2] = target: Myc-tagged LEF1 (UniProt Q9UJU2); assay: as above; conditions: HEK293T cells, transfected; densitometry mean of three independent experiments; parent: 1.0
Chain of UniProt Q9UJU2 (Q9UJU2 whole entry): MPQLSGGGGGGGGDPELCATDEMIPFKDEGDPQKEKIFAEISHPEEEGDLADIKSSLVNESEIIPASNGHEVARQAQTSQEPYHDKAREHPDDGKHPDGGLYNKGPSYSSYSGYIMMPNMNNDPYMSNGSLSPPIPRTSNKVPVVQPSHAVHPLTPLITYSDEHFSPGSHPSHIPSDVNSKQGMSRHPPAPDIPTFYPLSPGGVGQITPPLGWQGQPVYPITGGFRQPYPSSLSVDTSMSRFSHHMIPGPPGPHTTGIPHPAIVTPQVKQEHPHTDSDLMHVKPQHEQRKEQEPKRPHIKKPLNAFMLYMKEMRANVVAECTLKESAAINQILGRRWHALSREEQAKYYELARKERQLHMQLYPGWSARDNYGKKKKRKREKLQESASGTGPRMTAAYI

Chain of UniProt Q9NQB0 (Q9NQB0 whole entry): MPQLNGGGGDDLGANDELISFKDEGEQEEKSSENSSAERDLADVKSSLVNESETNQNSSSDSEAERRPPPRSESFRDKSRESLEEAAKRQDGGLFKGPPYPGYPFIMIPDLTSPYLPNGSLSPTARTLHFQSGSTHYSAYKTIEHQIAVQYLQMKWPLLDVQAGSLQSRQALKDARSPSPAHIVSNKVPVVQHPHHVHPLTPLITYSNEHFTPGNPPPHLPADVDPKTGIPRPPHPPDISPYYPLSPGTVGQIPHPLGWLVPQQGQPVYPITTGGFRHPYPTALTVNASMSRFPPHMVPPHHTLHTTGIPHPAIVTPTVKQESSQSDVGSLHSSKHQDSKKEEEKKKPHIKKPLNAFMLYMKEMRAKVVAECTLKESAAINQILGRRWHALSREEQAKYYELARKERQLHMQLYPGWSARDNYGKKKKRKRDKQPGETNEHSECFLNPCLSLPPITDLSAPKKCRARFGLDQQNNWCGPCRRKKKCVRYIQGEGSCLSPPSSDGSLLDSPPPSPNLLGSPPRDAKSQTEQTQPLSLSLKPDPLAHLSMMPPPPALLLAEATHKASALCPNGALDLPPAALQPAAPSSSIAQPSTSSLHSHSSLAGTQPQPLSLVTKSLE

ratio to parent [1]: 0.17
ratio to parent [2]: 0.44
Substance: FLAG-V5-tagged FBXW7α, wild type (from UniProt Q969H0) WD40 (three arginine residues within one WD40 repeat mutated; lane label WD)

— publication PMC10565641
